Laboratory results taken from article PMC7847995, “Site-directed mutagenesis identified the key active site residues of alcohol acyltransferase PpAAT1 responsible for aroma biosynthesis in peach fruits” (Horticulture Research, 2021).
Where a chain is given by its changes, count along the chain named. In names and notes the source's numbering stands.

What was measured:
PpAAT1 = target: T1, PpAAT1 (Prunus persica, UniProt M5WU76); experiment: esterification assay; format: biochemical; conditions: co-substrate acetyl-CoA
T1 construct: gene AAT1; codon-optimised, C-terminal polyhistidine tag, pET-30a(+), expressed in E. coli, purified; HxxxD motif HAMCD at H165-D169

[1] = substrate: CCCCCCC(O)CCC(=O)SCCNC(=O)CCNC(=O)[C@H](O)C(C)(C)COP(=O)(O)OP(=O)(O)OC[C@H]1O[C@@H](n2cnc3c(N)ncnc32)[C@H](O)[C@@H]1OP(=O)(O)O; experiment: GC-MS of gamma-decalactone formation; format: biochemical, Prunus persica; conditions: internal esterification to gamma-decalactone; ±SE, n = 3
From the text: GC-MS of gamma-decalactone formation on PpAAT1

T1 sequence (M5WU76 entry or part of it): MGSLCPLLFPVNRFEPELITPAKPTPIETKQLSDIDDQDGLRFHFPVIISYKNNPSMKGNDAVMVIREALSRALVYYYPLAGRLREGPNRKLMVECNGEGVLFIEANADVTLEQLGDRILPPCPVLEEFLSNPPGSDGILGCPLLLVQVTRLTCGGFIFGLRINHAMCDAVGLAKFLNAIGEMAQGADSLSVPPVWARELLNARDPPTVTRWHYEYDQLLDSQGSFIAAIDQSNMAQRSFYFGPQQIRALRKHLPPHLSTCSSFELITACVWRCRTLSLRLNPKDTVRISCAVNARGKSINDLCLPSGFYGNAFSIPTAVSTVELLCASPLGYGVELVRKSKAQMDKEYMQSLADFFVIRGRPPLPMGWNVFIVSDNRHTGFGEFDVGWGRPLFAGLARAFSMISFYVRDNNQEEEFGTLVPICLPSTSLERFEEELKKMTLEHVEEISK

OCc1ccccc1 [benzyl alcohol]
Kcat/Km (PpAAT1; product phenylmethyl acetate): acetyl–CoA and four different alcohols (propanol, hexanol, benzyl alcohol, and decanol)

CCCCCCO [hexanol]
Kcat/Km (PpAAT1; product hexyl acetate): a higher Kcat/Km ratio was observed in all substitutions when hexanol was used as the substrate

CCCO [propanol]
Kcat/Km (PpAAT1; product propyl acetate): acetyl–CoA and four different alcohols (propanol, hexanol, benzyl alcohol, and decanol)

CCCCCCCCCCO [decanol]
Kcat/Km (PpAAT1; product decyl acetate): acetyl–CoA and four different alcohols (propanol, hexanol, benzyl alcohol, and decanol)

B1: PpAAT1 (Prunus persica; K298F) (protein)
chain: MGSLCPLLFPVNRFEPELITPAKPTPIETKQLSDIDDQDGLRFHFPVIISYKNNPSMKGNDAVMVIREALSRALVYYYPLAGRLREGPNRKLMVECNGEGVLFIEANADVTLEQLGDRILPPCPVLEEFLSNPPGSDGILGCPLLLVQVTRLTCGGFIFGLRINHAMCDAVGLAKFLNAIGEMAQGADSLSVPPVWARELLNARDPPTVTRWHYEYDQLLDSQGSFIAAIDQSNMAQRSFYFGPQQIRALRKHLPPHLSTCSSFELITACVWRCRTLSLRLNPKDTVRISCAVNARGFSINDLCLPSGFYGNAFSIPTAVSTVELLCASPLGYGVELVRKSKAQMDKEYMQSLADFFVIRGRPPLPMGWNVFIVSDNRHTGFGEFDVGWGRPLFAGLARAFSMISFYVRDNNQEEEFGTLVPICLPSTSLERFEEELKKMTLEHVEEISK
notes: codon-optimised, C-terminal polyhistidine tag, pET-30a(+), expressed in E. coli, purified; HxxxD motif HAMCD at H165-D169
Km [1]: 10.1014 (±1.4928) mM | kcat [1]: 0.451 ± 0.0624 s⁻¹ | kcat/Km [1]: 44.1 ± 7.9 M⁻¹ s⁻¹

B2: PpAAT1 (Prunus persica; F314Y) (protein)
chain: B1 chain with F298K, F314Y
notes: as for B1
Km [1]: 4.2018 (±0.5997) mM | kcat [1]: 1.11 ± 0.119 s⁻¹ | kcat/Km [1]: 265 ± 31.1 M⁻¹ s⁻¹

B3: PpAAT1 (Prunus persica; R339V) (protein)
chain: B1 chain with F298K, R339V
notes: as for B1
Km [1]: 8.8556 (±1.4954) mM | kcat [1]: 0.322 ± 0.0547 s⁻¹ | kcat/Km [1]: 36.3 ± 5.1 M⁻¹ s⁻¹

B4: PpAAT1 (Prunus persica; K342F) (protein)
chain: B1 chain with F298K, K342F
notes: as for B1
Km [1]: 5.0532 (±0.3364) mM | kcat [1]: 1.32 ± 0.0927 s⁻¹ | kcat/Km [1]: 262 ± 74.2 M⁻¹ s⁻¹

B5: PpAAT1 (Prunus persica; H379V) (protein)
chain: B1 chain with F298K, H379V
notes: as for B1
Km [1]: 8.2152 (±0.9510) mM | kcat [1]: 0.362 ± 0.0249 s⁻¹ | kcat/Km [1]: 44.1 ± 3.6 M⁻¹ s⁻¹

B6: PpAAT1 (Prunus persica; F382Y) (protein)
chain: B1 chain with F298K, F382Y
notes: as for B1
Km [1]: 9.0224 (±0.7366) mM | kcat [1]: 0.373 ± 0.0138 s⁻¹ | kcat/Km [1]: 41.3 ± 2.7 M⁻¹ s⁻¹

B7: PpAAT1 (Prunus persica) (protein)
chain: B1 chain with F298K
notes: as for B1
Km [1]: 2.6187 (±0.2511) mM | kcat [1]: 2.72 ± 0.146 s⁻¹ | kcat/Km [1]: 1040 ± 91.6 M⁻¹ s⁻¹

B8: PpAAT1 (Prunus persica; A170S) (protein)
chain: B1 chain with A170S, F298K
notes: as for B1
Km [1]: 4.5852 (±0.6923) mM | kcat [1]: 1.28 ± 0.1 s⁻¹ | kcat/Km [1]: 278 ± 19.4 M⁻¹ s⁻¹

B9: PpAAT1 (Prunus persica; A174S) (protein)
chain: B1 chain with A174S, F298K
notes: as for B1
Km [1]: 9.1599 (±1.0952) mM | kcat [1]: 0.399 ± 0.048 s⁻¹ | kcat/Km [1]: 43.6 ± 6.9 M⁻¹ s⁻¹

B10: PpAAT1 (Prunus persica; S262A) (protein)
chain: B1 chain with S262A, F298K
notes: as for B1
Km [1]: 2.9920 (±0.3836) mM | kcat [1]: 2.36 ± 0.364 s⁻¹ | kcat/Km [1]: 790 ± 190 M⁻¹ s⁻¹

B11: PpAAT1 (Prunus persica; F264Y) (protein)
chain: B1 chain with F264Y, F298K
notes: as for B1
Km [1]: 3.0241 (±0.5145) mM | kcat [1]: 2.53 ± 0.287 s⁻¹ | kcat/Km [1]: 836 ± 122 M⁻¹ s⁻¹
